Laboratory results reported in patent publication US10954305B2 (Immunomedics, Inc., priority 2016, dated 2021).

Columns and labels:
p53 in BxPC-3 and Calu-3 = experiment: p53 expression; assay type: cell-based, human
Description: In addition, p53 expression in cells exposed to the ADC was higher in both cell lines compared to SN-38 (not shown). […] In terms of later apoptotic events, cleavage of PARP was evident in both cell lines when incubated with either SN-38 or the conjugate (not shown). […] The higher degree of cleavage with free SN-38 over the ADC was consistent with the cytotoxicity findings.

[1] = tested on: SK-MES-1 human squamous cell lung tumors; experiment: SK-MES-1 xenograft therapy; assay type: in vivo, nude mice; settings: 0.4 mg/kg; 28 days
Description: Therapeutic efficacy of hRS7-SN-38 ADC in several solid tumor-xenograft disease models.
Tumor volume (TV) was determined by measurements in 2 dimensions using calipers, with volumes defined as: L×w^2/2, where L is the longest dimension of the tumor and w is the shortest.

Capan-1 xenografts = experiment: combined radioimmunotherapy and ADC, Capan-1 xenograft; assay type: in vivo, nude mice
Description: The present study examined combinations of ^90Y-hPAM4 IgG with RS7-SN-38 in nude mice bearing 0.35 cm^3 subcutaneous xenografts of the human pancreatic cancer cell line, Capan-1. […] These studies provide the first evidence that combined radioimmunotherapy and ADC enhances efficacy at safe doses.

[2] = molecular target: T1, Trop-2 on multiple cell lines (Homo sapiens, UniProt P09758); experiment: in vitro cell binding
T1 construct: endogenous in cells; host or cells: human solid tumour cell lines
T1 sequence (P09758 27-323): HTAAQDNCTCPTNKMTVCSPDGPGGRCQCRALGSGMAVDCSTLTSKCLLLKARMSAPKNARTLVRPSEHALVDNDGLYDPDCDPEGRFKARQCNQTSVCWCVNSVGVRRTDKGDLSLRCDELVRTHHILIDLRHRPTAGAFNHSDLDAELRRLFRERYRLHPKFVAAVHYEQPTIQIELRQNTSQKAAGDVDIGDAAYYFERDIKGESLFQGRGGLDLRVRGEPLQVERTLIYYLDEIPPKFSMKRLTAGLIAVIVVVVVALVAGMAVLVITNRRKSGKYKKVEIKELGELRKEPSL
Description: LumiGLO Chemiluminescent Substrate System (KPL, Gaithersberg, Md.) was used to detect antibody binding to cells. Briefly, cells were plated into a 96 black-well, flat-clear-bottom plate overnight. Antibodies were serially diluted 1:2 and added in triplicate, yielding a concentration range from 0.03 to 66.7 nM. After incubating for 1 h at 4° C., the media was removed and the cells washed with fresh cold media followed by the addition of a 1:20,000 dilution of goat-antihuman horseradish peroxidase-conjugated secondary antibody (Jackson Immunoresearch, West Grove, Pa.) for 1 h at 4° C. The plates were again washed before the addition of the LumiGLO reagent. Plates were read for luminescence using an Envision plate reader (Perkin Elmer, Boston Mass.). Data were analyzed by non-linear regression to determine the equilibrium dissociation constant (KD). Statistical comparisons of KD-values were made with Prism GraphPad Software (v4.03) (Advanced Graphics Software, Inc.; Encinitas, Calif.) using an F-Test on the best-fit curves for the data. Significance was set at P<0.05.

MDA-MB-468 = experiment: ADCC, LDH-release assay; assay type: cell-based, human; settings: 33.3 nM, E:T 50:1
Description: Briefly, target cells (MDA-MB-468, NIH:OVCAR-3, or BxPC-3) were plated at 1×10^4 cells/well in a 96-well, black, flat-bottom plate and incubated overnight. The next day, peripheral blood mononuclear effector cells (PBMCs) were freshly isolated from a donor and added to assigned wells on the reaction plate at an E:T ratio of 50:1. Acquisition of human PBMCs was done under the approval of the New England Institutional Review Board (Newton, Mass.). Test reagents were added to their assigned wells at a final concentration of 33.3 nM. One set of wells received ADCC assay medium alone for background control and another set of wells received cells alone plus TritonX100 for maximum cells lysis control. The plate was incubated for 4 h at 37° C. After 4 h, target cell lysis was assessed by a homogenous fluorometric LDH release assay (Cyto Tox-One Homogenous Membrane Integrity Assay; Promega, Cat. G7891).
The plates were read (544 nm-590 nm) using an Envision plate reader (PerkinElmer LAS, Inc.; Shelton, Conn.). Data were analyzed by Microsoft Excel. Percent specific lysis was calculated as follows: […]

BxPC-3 = experiment: dsDNA breaks, γH2AX flow cytometry; assay type: cell-based, human; settings: 20 μg/ml for 30 min
Description: For drug activity testing, BxPC-3 cells were seeded in 6-well plates at 5×10^5 cells/well and held at 37° C. overnight. […] The following morning, cells were trypsinized briefly, spun down, stained with Fixable Viability Stain 450 (BD Biosciences, San Jose, Calif.), washed with 1% BSA-PBS, and then fixed in 4% formalin for 15 min, washed again and permeabilized in 0.15% Triton-X100 in PBS for another 15 min. After washing twice with 1% BSA-PBS, cells were incubated with mouse anti-γH2AX-AF488 (EMD Millipore Corporation, Temecula, Calif.) for 45 min at 4° C. The signal intensity of γH2AX was measured by flow cytometry using a BD FACSCanto (BD Biosciences, San Jose, Calif.).

[3] = mouse, in vivo, iv, 200 ug
Description: ELISA was utilized to determine serum concentrations of total hRS7 IgG by competing for the binding to an anti-hRS7 IgG idiotype antibody with a horseradish peroxidase conjugate of hRS7. […] Pharmacokinetic (PK) parameters were computed by noncompartmental analysis using Phoenix WinNonlin software (version 6.3; Pharsight Corp., Mountainview, Calif.).

COLO 205 tumors = experiment: COLO 205 xenograft therapy; settings: 0.4 mg/kg, q4dx8; 28-day treatment period
Description: NCr female athymic nude (nu/nu) mice, 4 to 8 weeks old, and male Swiss-Webster mice, 10 weeks old, were purchased from Taconic Farms. […] Tumor volume (TV) was determined by measurements in 2 dimensions using calipers, with volumes defined as: L×w^2/2, where L is the longest dimension of the tumor and w is the shortest. […] This dosing frequency reflected a consideration of the conjugate's serum half-life in vitro, to allow a more continuous exposure to the ADC.

[4] = Phase I/II clinical trial of IMMU-132, adverse events; assay type: in vivo, human; settings: for dose-limiting toxicity: Phase I
Description: The maximum tolerated dose (MTD) was judged on the patient's tolerance to the first treatment cycle.

hRS7 IgG
time to upregulation of p53 (p53 in BxPC-3 and Calu-3): 48 h
tumor volume (TV) [1]: 1.30±1.08 cm^3
anti-tumor activity of unconjugated antibody (Capan-1 xenografts; given alone): Neither unconjugated hPAM4 nor hRS7 antibodies had anti-tumor activity when given alone
KD [2]: in the sub-nanomolar range
specific lysis (MDA-MB-468): 29.8±2.6%
Mean Fluorescence Intensity (γH2AX) (BxPC-3): 2297 ± 18
Percent Positive (γH2AX) (BxPC-3): 13.0 ± 0.6%
alpha half-life, hRS7 IgG [3]: approximately 3 h
beta half-life, hRS7 IgG [3]: ~200 h
tumor volume (TV) (COLO 205 tumors): 1.77±0.93 cm^3

IMMU-132
time to upregulation of p53 (p53 in BxPC-3 and Calu-3): ≤ 24 h
grade-3 diarrhea, patients ([4]; 10 mg/kg): 1
Dose-limiting toxicity 1st cycle, patients ([4]; 18 mg/kg, 3 treated): 2
neutropenia >Grade 3 ([4]; 49 patients reporting related AE): 28%
incidence of Grade 3 or higher adverse events other than neutropenia ([4]; 261 patients enrolled): less than 10%
Abdominal pain, Grade 3, n (%) ([4]; N = 47): 0
Abdominal pain, Grade 4, n (%) ([4]; N = 47): 0
Anemia, Grade 3, n (%) ([4]; N = 47): 2 (4%)
Anemia, Grade 4, n (%) ([4]; N = 47): 0
Deep vein thrombosis, Grade 3, n (%) ([4]; N = 47): 1 (2%)
Deep vein thrombosis, Grade 4, n (%) ([4]; N = 47): 0
Diarrhea, Grade 3, n (%) ([4]; N = 47): 4 (9%)
Diarrhea, Grade 4, n (%) ([4]; N = 47): 0
Dysgeusia, Grade 3, n (%) ([4]; N = 47): 0
Dysgeusia, Grade 4, n (%) ([4]; N = 47): 0
Fatigue, Grade 3, n (%) ([4]; N = 47): 4 (9%)
Fatigue, Grade 4, n (%) ([4]; N = 47): 0
Febrile Neutropenia, Grade 3, n (%) ([4]; N = 47): 1 (2%)
Febrile Neutropenia, Grade 4, n (%) ([4]; N = 47): 2 (4%)
Hypokalemia, Grade 3, n (%) ([4]; N = 47): 1 (2%)
Hypokalemia, Grade 4, n (%) ([4]; N = 47): 0
Nausea, Grade 3, n (%) ([4]; N = 47): 0
Nausea, Grade 4, n (%) ([4]; N = 47): 0
Neutropenia, Grade 3, n (%) ([4]; N = 47): 11 (24%)
Neutropenia, Grade 4, n (%) ([4]; N = 47): 2 (4%)
Pyrexia, Grade 3, n (%) ([4]; N = 47): 0
Pyrexia, Grade 4, n (%) ([4]; N = 47): 0
Vomiting, Grade 3, n (%) ([4]; N = 47): 1 (2%)
Vomiting, Grade 4, n (%) ([4]; N = 47): 0
WBC Decrease, Grade 3, n (%) ([4]; N = 47): 1 (2%)
WBC Decrease, Grade 4, n (%) ([4]; N = 47): 0
dose-limiting toxicity [4]: neutropenia
dose-limiting toxicity ([4]; listed as sacituzumab govitecan): Neutropenia
mice tumor-free after 20 weeks (Capan-1 xenografts; ADC alone): 1 of 10
KD [2]: in the sub-nanomolar range
specific lysis (MDA-MB-468): 8.6±2.6%
Mean Fluorescence Intensity (γH2AX) (BxPC-3): 5349 ± 234
MRT, carrier hRS7 antibody [3]: ~300 h
alpha half-life, hRS7 IgG [3]: approximately 3 h
beta half-life, hRS7 IgG [3]: ~200 h
half-life, intact conjugate [3]: 11 h
